Source: IntAct's records for PubMed 11313760

B1: Prelamin-A/C (Homo sapiens), P02545-1 (parent)
chain: METPSQRRATRSGAQASSTPLSPTRITRLQEKEDLQELNDRLAVYIDRVRSLETENAGLRLRITESEEVVSREVSGIKAAYEAELGDARKTLDSVAKERARLQLELSKVREEFKELKARNTKKEGDLIAAQARLKDLEALLNSKEAALSTALSEKRTLEGELHDLRGQVAKLEAALGEAKKQLQDEMLRRVDAENRLQTMKEELDFQKNIYSEELRETKRRHETRLVEIDNGKQREFESRLADALQELRAQHEDQVEQYKKELEKTYSAKLDNARQSAERNSNLVGAAHEELQQSRIRIDSLSAQLSQLQKQLAAKEAKLRDLEDSLARERDTSRRLLAEKEREMAEMRARMQQQLDEYQELLDIKLALDMEIHAYRKLLEGEEERLRLSPSPTSQRSRGRASSHSSQTQGGGSVTKKRKLESTESRSSFSQHARTSGRVAVEEVDEEGKFVRLRNKSNEDQSMGNWQIKRQNGDDPLLTYRFPPKFTLKAGQVVTIWAAGAGATHSPPTDLVWKAQNTWGCGNSLRTALINSTGEEVAMRKLVRSVTVVEDDEDEDGDDLLHHHHGSHCSSSGDPAEYNLRSRTVLCGTCGQPADKASASGSGAQVGGPISSGSSASSVTVTRSYRSVGGSGGGSFGDNLVTRSYLLGNSSPRTQSPQNCSIM
partner: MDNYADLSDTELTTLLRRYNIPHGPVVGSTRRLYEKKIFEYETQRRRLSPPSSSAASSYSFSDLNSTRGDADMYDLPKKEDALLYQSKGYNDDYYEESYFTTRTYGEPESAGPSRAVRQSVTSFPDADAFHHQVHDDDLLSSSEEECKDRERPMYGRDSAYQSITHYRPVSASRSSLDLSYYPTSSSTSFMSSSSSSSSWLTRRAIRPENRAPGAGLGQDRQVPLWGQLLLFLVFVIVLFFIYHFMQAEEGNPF

Variants of: B1
Conditions: with emd_human EMD

effect of a mutation on the interaction | Variant
with no effect | R482Q
